From US20260055180A1 come the findings set out here.

The target of the experiment is murine DLL3.HIS (IPA custom, amino acid 25-477) (mouse) (UniProt O88516). In words: BLI (Octet), captured on AHC sensor, antigen in solution.
Sequence of murine DLL3.HIS (IPA custom, amino acid 25-477) (mouse) (O88516 25-477 limits assumed, form in doubt): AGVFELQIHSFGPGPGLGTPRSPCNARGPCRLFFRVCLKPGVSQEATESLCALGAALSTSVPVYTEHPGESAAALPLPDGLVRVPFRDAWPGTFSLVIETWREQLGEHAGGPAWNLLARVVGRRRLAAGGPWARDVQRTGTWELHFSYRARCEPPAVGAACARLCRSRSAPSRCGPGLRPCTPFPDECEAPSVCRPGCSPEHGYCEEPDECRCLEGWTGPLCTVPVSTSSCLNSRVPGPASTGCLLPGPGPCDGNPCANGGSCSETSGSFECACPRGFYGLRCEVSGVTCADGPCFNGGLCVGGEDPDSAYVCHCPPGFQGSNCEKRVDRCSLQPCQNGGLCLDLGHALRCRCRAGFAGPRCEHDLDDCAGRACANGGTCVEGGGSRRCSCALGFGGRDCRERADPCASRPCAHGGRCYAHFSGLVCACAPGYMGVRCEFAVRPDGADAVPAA

B1: DLL3 VHH (Fc fusion, not shown: small tags and cut ends; a dimerising Fc or GST)
chain: EVQLVESGGGEVQPGGSLRLSCAASGSIFSINAMGWYRQAPGKQRELVAGFTGDTNTIYAESVKGRFTISRDNAKNTVYLQMSSLRAEDTAVYYCAADVQLFSRDYEFYWGQGTLVTVKP
Molecule B1 came in with a koff of 0.000267 s⁻¹ and a kon of 215000 M⁻¹ s⁻¹.
